This is an account of results in PMC4474781 (Environmental microbiology, 2015).

This experiment deals with T1, oxidoreductase FAD/NAD(P)-binding subunit (Dred_1685), His6-tagged, co-expressed with Dred_1686 (Desulfotomaculum reducens MI-1, UniProt A4J559 1-262).
T1 sequence (looked up): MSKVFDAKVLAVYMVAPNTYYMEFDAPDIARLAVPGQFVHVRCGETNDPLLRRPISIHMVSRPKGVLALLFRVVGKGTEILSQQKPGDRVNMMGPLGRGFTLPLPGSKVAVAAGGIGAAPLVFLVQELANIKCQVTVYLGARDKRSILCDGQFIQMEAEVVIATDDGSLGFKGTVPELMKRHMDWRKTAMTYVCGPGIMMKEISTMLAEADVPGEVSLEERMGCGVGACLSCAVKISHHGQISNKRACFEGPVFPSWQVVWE
Briefly: pull-down.

B1: dihydroorotate dehydrogenase 1B (Dred_1686), untagged, co-expressed with His6-Dred_1685 (enzyme, Desulfotomaculum reducens MI-1, UniProt A4J560 1-304, looked up)
chain: MKLNLAVKIGQLDMINPVTTASGTFGYGQEYSPYVDLNQLGAIVVKGTTLEPREGNPTPRLVETPSGILNSIGLQNSGVDYLLEHYVPFFKKLQTNVIVNISGNTAEEYGQLAARLDEADGIAALEVNISCPNVKKGGMAFGGDFRTAAEVTKVVKNSTALPVIVKLSPNVTDIAEIARAVEGAGADGLSVINTLLGMAIDVRKRKPVLGNTMGGLSGPAVKPVALRAVWQVYKAVHIPIIGMGGIMNATDALEFILAGAQAVSVGTANFVNPYATKEIIQGMEKYLMENGIGDINELVGAAHL
What is called stoichiometry N is the number of molecules, sites or subunits per partner or assembly. B1: the “stoichiometry N” value came to 1.
